Data reported in the supplement of paper PMC9732359.
± gives the uncertainty stated by the source.

Test: protein stability index of a GFP-peptide fusion (yeast GPS) (PSI 1-4); higher = more stable; sorted into four equal gates, so the index is relative within each strain
How it was run: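 Tiled 17-residue yeast protein peptides were fused downstream of GFP in a plasmid that also expresses Cherry, and the pooled library was carried in yeast. Mid-log cultures in leucine-free medium were sorted into four equal gates by GFP/Cherry fluorescence ratio, and plasmids from each gate were PCR-amplified and Illumina-sequenced, with reads assigned to strains by barcodes. The protein stability index for each peptide was each gate's read frequency times its gate number, summed.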

Sequence | protein stability index (doa10∆) | protein stability index (pdr5∆) | protein stability index (san1∆) | protein stability index (ubr1∆)
IRAQNFKSALANLEDII [RRP6] | 1.89 ± 0.06 | 1.75 ± 0.062 | 2.29 ± 0.091 | 1.41 ± 0.047
SVSSPIELNFDAVKDFK [QCR2] | 1.89 ± 0.069 | 1.67 ± 0.065 | 2.5 ± 0.09 | 1.57 ± 0.053
WPKTRGVAMNPVDHPHG [RPL2A] | 2.37 ± 0.078 | 2.25 ± 0.057 | 2.74 ± 0.058 | 2.55 ± 0.066
PELAMALRLSMEEEQQR [RPN10] | 3.15 ± 0.14 | 3.09 ± 0.061 |  | 3.14 ± 0.08
YNNNTIRKLLEKINRMI [CSI1] | 3 ± 0.18 | 2.79 ± 0.17 |  | 3.1 ± 0.19
EKAIPKDQRATTPYMTK [RPO26] | 2.85 ± 0.043 | 2.98 ± 0.047 | 2.97 ± 0.046 | 3.03 ± 0.044
TTKERKKSRLGNSFHLM [PRP8] | 2.7 ± 0.066 | 2.83 ± 0.065 | 2.57 ± 0.062 | 2.48 ± 0.054
PQGFSSVERGRKRAHSL [REC8] | 3.38 ± 0.11 | 3.4 ± 0.12 | 3.36 ± 0.048 | 3.19 ± 0.067
ALIRRDFTLIPRMASVF [CDC53] | 2.12 ± 0.13 | 2.39 ± 0.072 | 2.64 ± 0.16 | 2.17 ± 0.14
KNLKPQEQLKNVKNDVS [YIL149C/MLP2] | 3.23 ± 0.089 | 3.21 ± 0.067 | 2.51 ± 0.1 | 3.01 ± 0.096
YVEAQHKLVFVVRIKGI [RPL7A] | 1.09 ± 0.058 | 1.19 ± 0.054 | 1.25 ± 0.094 | 1.21 ± 0.053
QRVRNMRELGLIQSTEF [YOR098C/NUP1] | 2.78 ± 0.12 | 2.03 ± 0.1 | 2.84 ± 0.26 | 2.22 ± 0.12
SKDVQQIDYKLESFQAV [RPS7A] | 2.89 ± 0.053 | 3.06 ± 0.059 | 3.08 ± 0.054 | 3.07 ± 0.038
EEPIKKLCYVLGVEDIT [RET1] |  |  | 3.08 ± 0.15 | 
SSTGVPESIDTILSSKL [SRB2] | 2.62 ± 0.19 | 2.92 ± 0.13 | 2.93 ± 0.075 | 3.04 ± 0.075
YASYFPYLLETYANVLI [RPN7] | 1.57 ± 0.088 | 1.43 ± 0.062 | 1.18 ± 0.096 | 1.08 ± 0.043
KGSRFISTLQVKLYGRE [RPB2] | 2.06 ± 0.065 | 2.3 ± 0.057 | 2.58 ± 0.089 | 2.37 ± 0.056
DQDSAVVSSNIKKIVAD [QCR2] |  |  |  | 3.14 ± 0.14
RMSYGSHDKKTKCSTVV [SRP14] | 2.96 ± 0.092 | 3.07 ± 0.12 | 3.19 ± 0.045 | 3.33 ± 0.088
INAQGEEIVVVASADYE [PRP8] | 2.91 ± 0.09 | 3.33 ± 0.096 | 2.78 ± 0.07 | 2.73 ± 0.04

Sequence | protein stability index (doa10∆) | protein stability index (pdr5∆) | protein stability index (san1∆) | protein stability index (ubr1∆)
QWRYLYDTQLKVSPEEL [ARP7] | 1.98 ± 0.042 | 1.97 ± 0.042 | 2.08 ± 0.056 | 1.67 ± 0.049
VAPFMIKYEFNGIPLKS [YMR129W/POM152] | 2.54 ± 0.077 | 1.91 ± 0.045 | 2.38 ± 0.083 | 2.75 ± 0.073
TTIQTEKVRPTPGEVAS [MCD1] | 2.74 ± 0.043 | 2.44 ± 0.041 | 2.8 ± 0.04 | 2.84 ± 0.034
NSESTTQGGNVNLDNTA [RPT5] | 3.53 ± 0.11 | 3.41 ± 0.12 | 3.27 ± 0.09 | 3.11 ± 0.087
KNFKGIEEIEYNVKNII [PCI8] | 3.05 ± 0.078 | 3.04 ± 0.093 | 3.11 ± 0.061 | 3.05 ± 0.063
EGFAADDEPTTPAELVG [FAS1] | 3.3 ± 0.09 | 3.19 ± 0.092 | 3.2 ± 0.071 | 3.19 ± 0.076
NEETFTVPELEIPTQIY [ARP9] | 2.7 ± 0.065 | 2.77 ± 0.059 | 2.48 ± 0.064 | 2.92 ± 0.063
TLEDALRRIITDLNQDS [GRR1] | 2.01 ± 0.074 | 1.86 ± 0.063 | 2.1 ± 0.067 | 2.4 ± 0.053
METRINILLRERDSYKL [YIL149C/MLP2] | 1.96 ± 0.27 | 1.59 ± 0.11 | 1.2 ± 0.27 | 2.3 ± 0.15
SSETDDDHSQVINPQQL [DSN1] | 2.99 ± 0.048 | 3.13 ± 0.05 | 2.99 ± 0.044 | 3.08 ± 0.048
AIMKPYYLWTGKQVFSL [RPO31] | 2.71 ± 0.13 | 2.91 ± 0.11 | 2.83 ± 0.085 | 2.72 ± 0.061
QRGKMHGLKQLRDSLAD [NUT2] | 3.04 ± 0.077 | 2.67 ± 0.062 | 1.48 ± 0.071 | 2.1 ± 0.06
GSKIRVMWGKVTRTHGN [RPL33A] | 3.09 ± 0.075 | 2.9 ± 0.076 | 2.76 ± 0.062 | 2.78 ± 0.054
MSTELTVQSERAFQKQP [RPS11A] | 3.13 ± 0.1 | 2.97 ± 0.099 | 2.98 ± 0.11 | 2.75 ± 0.076
CELQVETYGSMEMSEKI [RPN5] | 2.76 ± 0.096 | 2.96 ± 0.074 | 2.71 ± 0.071 | 2.84 ± 0.077
KKIREIYRYDEMSNKVL [BRR2] | 2.92 ± 0.097 | 3.06 ± 0.13 | 2.62 ± 0.086 | 3.08 ± 0.045
LYFYRDPEEVEQQVAEE [RPS0A] | 3.31 ± 0.087 | 3.31 ± 0.095 | 3.1 ± 0.082 | 3.56 ± 0.076
NWIKPSDSEIPPLLVYK [PRP8] | 2.16 ± 0.065 | 2.24 ± 0.056 | 2.21 ± 0.075 | 2.12 ± 0.063
TTLDAEKVFTQGLNILE [FAS1] | 3.17 ± 0.11 | 3.21 ± 0.1 | 3.32 ± 0.091 | 3.28 ± 0.064
TNILISPLNTTTKILGD [YML103C/NUP188] | 2.15 ± 0.058 | 2.42 ± 0.05 | 2.04 ± 0.086 | 1.51 ± 0.033
